Measured values from publication PMC6823292, “Molecular structure of human synaptonemal complex protein SYCE1” (Chromosoma, 2019).

B1: human SYCE1 core (amino acids 25–179) (domain or fragment, UniProt Q8N0S2 25-179, looked up)
chain: GQDTSSQKIEDLMEMVQKLQKVGSLEPRVEVLINRINEVQQAKKKANKDLGEARTICEALQKELDSLHGEKVHLKEILSKKQETLRILRLHCQEKESEAHRKHTMLQECKERISALNLQIEEEKNKQRQLRLAFEEQLEDLMGQHKDLWDFHMPE
notes: also called SYCE1 structural core; source: E. coli BL21(DE3), purified (amylose, anion exchange, TEV cleavage, anion exchange, SEC); not shown: His, N-terminal, cleaved; MBP, N-terminal, cleaved
B2: SYCE1-MBP (C-terminal MBP fusion of SYCE1 core, amino acids 25–179) (domain or fragment, human, UniProt Q8N0S2 25-179, looked up)
chain: GQDTSSQKIEDLMEMVQKLQKVGSLEPRVEVLINRINEVQQAKKKANKDLGEARTICEALQKELDSLHGEKVHLKEILSKKQETLRILRLHCQEKESEAHRKHTMLQECKERISALNLQIEEEKNKQRQLRLAFEEQLEDLMGQHKDLWDFHMPE
notes: source: E. coli BL21(DE3), purified; not shown: MBP, C-terminal, kept
B3: MBP-SYCE1-MBP (N- and C-terminal MBP double fusion of SYCE1 core, amino acids 25–179) (domain or fragment, human, UniProt Q8N0S2 25-179, looked up)
chain: GQDTSSQKIEDLMEMVQKLQKVGSLEPRVEVLINRINEVQQAKKKANKDLGEARTICEALQKELDSLHGEKVHLKEILSKKQETLRILRLHCQEKESEAHRKHTMLQECKERISALNLQIEEEKNKQRQLRLAFEEQLEDLMGQHKDLWDFHMPE
notes: source: E. coli BL21(DE3), purified; not shown: MBP, N-terminal, kept; MBP, C-terminal, kept
B4: MBP-SYCE1 (N-terminal MBP fusion of SYCE1 core, amino acids 25–179) (domain or fragment, human, UniProt Q8N0S2 25-179, looked up)
chain: GQDTSSQKIEDLMEMVQKLQKVGSLEPRVEVLINRINEVQQAKKKANKDLGEARTICEALQKELDSLHGEKVHLKEILSKKQETLRILRLHCQEKESEAHRKHTMLQECKERISALNLQIEEEKNKQRQLRLAFEEQLEDLMGQHKDLWDFHMPE
notes: pMAT11 gives a His-MBP fusion with a TEV site; source: E. coli BL21(DE3), purified; not shown: MBP, N-terminal, kept
B5: human SYCE1 full length (amino acids 1–351) (natural protein, UniProt Q8N0S2 1-351, looked up)
chain: MAGRSLTSKAEPTAGAVDRAEKAGGQDTSSQKIEDLMEMVQKLQKVGSLEPRVEVLINRINEVQQAKKKANKDLGEARTICEALQKELDSLHGEKVHLKEILSKKQETLRILRLHCQEKESEAHRKHTMLQECKERISALNLQIEEEKNKQRQLRLAFEEQLEDLMGQHKDLWDFHMPERLAKEICALDSSKEQLLKEEKLVKATLEDVKHQLCSLCGAEGPSTLDEGLFLRSQEAAATVQLFQEEHRKAEELLAAAAQRHQQLQQKCQQQQQKRQRLKEELEKHGMQVPAQAQSTQEEEAGPGDVASPKPLKGERPGAAHQAGPDVLIGQEDTLHPDLSPRGFQEIKELF
notes: synaptonemal complex central element protein 1 (SYCE1), human, full length, amino acids 1–351; also called full-length SYCE1; source: E. coli BL21(DE3), purified (amylose, anion exchange, TEV cleavage, anion exchange, SEC); not shown: His, N-terminal, cleaved; MBP, N-terminal, cleaved

Molecular target: the molecule itself
Experiment: SEC-MALS; 6–20 mg/ml loaded on Superdex 200 Increase 10/300 GL in 20 mM Tris pH 8.0, 150 mM KCl, 2 mM DTT

Row | Protein | stoichiometry N
1 | B1 | 2
2 | B2 | 2
3 | B3 | 2
4 | B4 | 2
5 | B5 | 2
